Molecular target: SSPG1d peptide ([…])
Assay: ELISA

B1: polyhistidine tagged scFv-SSPG1d-peptide (scFv)
scFv: MDIVLTQSPAIMSASPGEKVTMTCSASSSVSYMHWYQQKSSTSPKLWIYDTSKLASGVPGRFSGSGSGNSYSLTISSMEAEDVATYYCFQGSGYPLTFGAGTKLEIKRGAGGSGGGGSGGGGSGGGGSQVQLQQSGAELVRPGSSVKISCKASGYAFSNYWMNWVKQRPGQGLEWIGQIYPGYGDAKYNGKFKGKATLTADISSSTAYMQLSSLTSEDSAVYFCARSSYEANWGQGTLVTVSALEHHHHHH
Kd: 26.7 nM
